The values that follow come from publication PMC12355471, “Clear Native Gel Electrophoresis for the Purification of Fluorescently Labeled Membrane Proteins in Native Nanodiscs” (Analytical Chemistry, 2025).

Series [1] concerns the target voltage-gated sodium ion channel NavMs. As to the kind of experiment: SEC; Glyco-DIBMA native nanodiscs with labelled protein after Ni2+ affinity chromatography; absorbance at 280, 650 and 665 nm; oligomer peak at 10-11 mL.
Series [2] has the same target. Nature of the series: fluorescence correlation spectroscopy (molecular brightness per nanodisc); Alexa Fluor 647-labelled protein in Glyco-DIBMA native nanodiscs; oligomer fraction after SEC and bands resolubilised from native gels; brightness compared with the free dye (ruler, 7.5 kHz); nM concentrations; standard buffer 150 mM NaCl or KCl, 50 mM Tris-HCl, pH 8.
For series [3] the target is unchanged. As to the kind of experiment: native gel or EMSA; high-resolution clear native PAGE (hrCNE) with 0.01% DDM and 0.05% sodium deoxycholate, Glyco-DIBMA nanodiscs, 4 °C, fluorescence imaging. On the technique in general: Mobility shift assays separate free from complexed probe on a gel.
The target in series [4] is voltage-gated potassium ion channel KvAP (Aeropyrum pernix) (UniProt Q9YDF8). Nature of the series: SEC; Glyco-DIBMA native nanodiscs with labelled protein after Ni2+ affinity chromatography; absorbance at 280, 650 and 665 nm; oligomer peak at 10-11 mL. On the technique in general: Size exclusion chromatography separates by hydrodynamic size, large species first.
Series [5] has the same target. Nature of the series: fluorescence correlation spectroscopy (molecular brightness per nanodisc); Alexa Fluor 647-labelled protein in Glyco-DIBMA native nanodiscs; oligomer fraction after SEC and bands resolubilised from native gels; brightness compared with the free dye (ruler, 7.5 kHz); nM concentrations; standard buffer 150 mM NaCl or KCl, 50 mM Tris-HCl, pH 8.
For series [6] the target is unchanged. Nature of the series: native gel or EMSA; detergent-free clear native PAGE (CNE) of Glyco-DIBMA nanodiscs, 4 °C, fluorescence imaging.
Series [7] shares this target. As to the kind of experiment: fluorescence correlation spectroscopy (molecular brightness per nanodisc); Alexa Fluor 647-labelled protein in Glyco-DIBMA native nanodiscs; oligomer fraction after SEC and bands resolubilised from native gels; brightness compared with the free dye (ruler, 7.5 kHz); nM concentrations; standard buffer 150 mM NaCl or KCl, 50 mM Tris-HCl, pH 8. The source holds these as a separate data set.

Series [8] has the same target. Nature of the series: native gel or EMSA; high-resolution clear native PAGE (hrCNE) with 0.01% DDM and 0.05% sodium deoxycholate, Glyco-DIBMA nanodiscs, 4 °C, fluorescence imaging.
Series [9] concerns the molecule itself. Nature of the series: SEC; Glyco-DIBMA native nanodiscs with labelled protein after Ni2+ affinity chromatography; absorbance at 280, 650 and 665 nm; oligomer peak at 10-11 mL.
Series [10] deals with the molecule itself. Nature of the series: fluorescence correlation spectroscopy (molecular brightness per nanodisc); Alexa Fluor 647-labelled protein in Glyco-DIBMA native nanodiscs; oligomer fraction after SEC and bands resolubilised from native gels; brightness compared with the free dye (ruler, 7.5 kHz); nM concentrations; standard buffer 150 mM NaCl or KCl, 50 mM Tris-HCl, pH 8.

Where two headings read alike, the source gives them in different places.

Turning to “voltage-gated sodium ion channel NavMs (natural protein)”, the stoichiometry N in series [1] and in series [3] was 4 in each case. For the same molecule, the ratio of molecular brightness to the free dye (taken as the oligomeric state) in series [2] is 3 fold.
In the case of “voltage-gated potassium ion channel KvAP (from UniProt Q9YDF8 1-295) (natural protein)”, the stoichiometry N in [4], in series [6] and in [8] was 4 in each case. Moreover, the ratio of molecular brightness to the free dye (taken as the oligomeric state) came out at 4 fold in series [5] and 5.5 fold in series [7].

B1: glycerol uptake facilitator protein (GlpF) (natural protein, UniProt P0AER0 1-281, looked up)
chain: MSQTSTLKGQCIAEFLGTGLLIFFGVGCVAALKVAGASFGQWEISVIWGLGVAMAIYLTAGVSGAHLNPAVTIALWLFACFDKRKVIPFIVSQVAGAFCAAALVYGLYYNLFFDFEQTHHIVRGSVESVDLAGTFSTYPNPHINFVQAFAVEMVITAILMGLILALTDDGNGVPRGPLAPLLIGLLIAVIGASMGPLTGFAMNPARDFGPKVFAWLAGWGNVAFTGGRDIPYFLVPLFGPIVGAIVGAFAYRKLIGRHLPCDICVVEEKETTTPSEQKASL
modifications: Alexa Fluor 647 maleimide on cysteine (six cysteine positions, not all can be labeled)
notes: glycerol uptake facilitator protein GlpF, a bacterial aquaporin; Studied inside Glyco-DIBMA native nanodiscs; A monomeric fraction was also found; also called bacterial aquaporin; aqua(glycero)porin GlpF
In the case of B1, in series [9], the “stoichiometry N” value was 4.

B2: urea channel HpUreI L134C (natural protein)
chain: MLGLVLLYVGIVLISNGICGLTKVDPKSTAVMNFFVGGLSIICNIVVITYSALHPTAPVEGAEDIAQVSHHLTSFYGPATGLLFGFTYLYAAINHTFGLDWRPYSWYSLFVAINTIPAAILSHYSDMLDDHKVCGITEGDWWAIIWLAWGVLWLTAFIENILKIPLGKFTPWLAIIEGILTAWIPAWLLFIQHWV
modifications: Alexa Fluor 647 maleimide on the cysteine of L134C
notes: urea channel UreI (HpUreI); Studied inside Glyco-DIBMA native nanodiscs; also called bacterial hexameric urea channel
With B2, the “ratio of molecular brightness to the free dye (taken as the oligomeric state)” value in series [10] was determined as 6 fold. For the same molecule, the “stoichiometry N” value in [9] amounted to 6.

A word on the stoichiometry N: it is the number of molecules, sites or subunits per partner or assembly.
